These results are taken from US20210401786A1, “COMPOSITION FOR TREATING BURN WOUNDS” (priority 2020, published 2021).

The assay has as its system human non-healing burn wounds. In words: Wound healing in patients with non-healing burn wounds. In kind it is in vivo. The settings on record: for Wound healing time (X +/− S): patients, completely healed cases. The protocol: In this application, medical records of 430 patients, including 368 male and 60 female, aged from 1 to 70 years old, with a clinical diagnosis of at least one non-healing burn wound were collected. The burn injury includes 150 cases of hydrothermal burns, 167 cases of flame burns, 84 cases of electric burns, and 29 cases of chemical burns. […] The non-healing wounds of 430 patients were treated with the composition of Example 3 of the present invention (49 cases), surgery (197 cases), and conventional treatment (rhEGF therapy) (184 cases). There were no statistically significant differences observed among the groups in terms of gender, age, and wound area (p>0.05) (The comparison results of the differences in terms of various factors are shown in Tables 5, 6 and 7).
Among the 49 patients in the present invention, the wound was completely healed in 31 cases (63.27%), effectively healed in 15 cases (30.61%), improved in 2 cases (4.08%), and not healed in 1 case (2.04%). Among the 197 patients in the surgery group, the wound was completely healed in 152 cases (77.15%), effectively healed in 39 cases (19.80%), improved in 6 cases (3.05%), and not healed in 0 case (0%). Among the 184 patients in the conventional treatment group, the wound was completely healed in 96 cases (52.17%), effectively healed in 56 cases (30.43%), improved in 24 cases (13.05%), and not healed in 8 cases (4.35%). The effect of the present invention on wound healing is analyzed by the total effective rate after receiving different treatments. The total effective rate=(the number of completely healed cases+the number of effectively healed cases)/total number of cases.
The wound healing time of the present invention group, surgery group and conventional dressing group is 19.87±9.10 days, 22.71±11.77 days and 36.71±10.60 days, respectively. […] There is no significant difference in wound healing time between the present invention group and the surgery group (P>0.05).

Setting [1] is: patients with non-healing burn wounds.
Setting [2] is: patients with non-healing burn wounds, listed as conventional treatment.

B1: Conventional treatment: conventional treatment (rhEGF therapy) of patients' non-healing burn wounds (protein, UniProt P01133 23-1207, looked up)
Pro-epidermal growth factor: PQHWSCPEGTLAGNGNSTCVGPAPFLIFSHGNSIFRIDTEGTNYEQLVVDAGVSVIMDFHYNEKRIYWVDLERQLLQRVFLNGSRQERVCNIEKNVSGMAINWINEEVIWSNQQEGIITVTDMKGNNSHILLSALKYPANVAVDPVERFIFWSSEVAGSLYRADLDGVGVKALLETSEKITAVSLDVLDKRLFWIQYNREGSNSLICSCDYDGGSVHISKHPTQHNLFAMSLFGDRIFYSTWKMKTIWIANKHTGKDMVRINLHSSFVPLGELKVVHPLAQPKAEDDTWEPEQKLCKLRKGNCSSTVCGQDLQSHLCMCAEGYALSRDRKYCEDVNECAFWNHGCTLGCKNTPGSYYCTCPVGFVLLPDGKRCHQLVSCPRNVSECSHDCVLTSEGPLCFCPEGSVLERDGKTCSGCSSPDNGGCSQLCVPLSPVSWECDCFPGYDLQLDEKSCAASGPQPFLLFANSQDIRHMHFDGTDYGTLLSQQMGMVYALDHDPVENKIYFAHTALKWIERANMDGSQRERLIEEGVDVPEGLAVDWIGRRFYWTDRGKSLIGRSDLNGKRSKIITKENISQPRGIAVHPMAKRLFWTDTGINPRIESSSLQGLGRLVIASSDLIWPSGITIDFLTDKLYWCDAKQSVIEMANLDGSKRRRLTQNDVGHPFAVAVFEDYVWFSDWAMPSVMRVNKRTGKDRVRLQGSMLKPSSLVVVHPLAKPGADPCLYQNGGCEHICKKRLGTAWCSCREGFMKASDGKTCLALDGHQLLAGGEVDLKNQVTPLDILSKTRVSEDNITESQHMLVAEIMVSDQDDCAPVGCSMYARCISEGEDATCQCLKGFAGDGKLCSDIDECEMGVPVCPPASSKCINTEGGYVCRCSEGYQGDGIHCLDIDECQLGEHSCGENASCTNTEGGYTCMCAGRLSEPGLICPDSTPPPHLREDDHHYSVRNSDSECPLSHDGYCLHDGVCMYIEALDKYACNCVVGYIGERCQYRDLKWWELRHAGHGQQQKVIVVAVCVVVLVMLLLLSLWGAHYYRTQKLLSKNPKNPYEESSRDVRSRRPADTEDGMSSCPQPWFVVIKEHQDLKNGGQPVAGEDGQAADGSMQPTSWRQEPQLCGMGTEQGCWIPVSSDKGSCPQVMERSFHMPSYGTQTLEGGVEKPHSLLSANPLWQQRALDPPHQMELTQ
modifications: Pro-epidermal growth factor
notes: conventional treatment (rhEGF therapy) of patients' non-healing burn wounds
Consider B1, for which the “Wound healing time (X +/− S)” value is 36.71 ± 10.60^ days. The “Total effective rate (%)” value ((completely healed + effectively healed cases)/total number of cases) is 82.61% ^. For the same molecule, under setting [1], the “Completely healed case (%)” value was “(52.17%)”; the “Completely healed case, number” value is given as 96 cases; the “Effectively healed case (%)” value is given as “(30.43%)”; the “Effectively healed case, number” value was found to be 56 cases. Under setting [1], the “Improved case (%)” value is “(13.05%)”; the “Improved case, number” value was determined as 24 cases; the “Not healed case (%)” value is given as “(4.35%)”; the “Not healed case, number” value was 8 cases. For the same molecule, under setting [2], the “Completely healed case (%)” value is 52.17%, the “Effectively healed case (%)” value is 30.43%, the “Improved case (%)” value is 13.05% and the “Not healed case (%)” value was 4.35%. The “Wound healing time (X +/− S)” value (listed as conventional dressing) worked out at 36.71 ± 10.60 days.
